{
  "source": "patent US20240239875A1",
  "about": "(published 2024)",
  "binders": {"B1": {"name": "1-B11-A (antibody, V domains shown)", "VH": "QVQLQQSGPELVKPGASVKISCKASGYTFTDHYINWVKQRPGQGLEWIGWIFPGSGSTYYNEQFKGKATLTVDKSSNTAYMLLSSLTSEDSAVYFCARSGGLRLGFAYWGQGTLVTVSA", "VL": "DIQMTQTTSSLSASLGDRVTISCRASQDISNYLNWYQQKPDGTVKLLIYYTSRLHSGVPSRFSGSGSGTDYSLTISNLEQEDISTYFCQQVNTLPYTFGGGTKLEIK"}, "B2": {"name": "9-F6-A (antibody, V domains shown)", "VH": "EVQLQQSGPELVKPGASVKMSCKASGYTFTSYIMHWVKQKPGQGLEWIGYILPYNDGTKYNEKFKGKATLTSDKSSSTAYMELRSLTSEDSAVYYCARWGYSNFLDSWGQGTTLTVSS", "VL": "B1 VL with S30N, S76R, S84A, V91G, Y96P"}, "B3": {"name": "2-G20-A (antibody, V domains shown)", "VH": "EVQLQQSGPELVKPGASVKMSCKASGYTFPSYVLHWVKQKPGQGLEWIGYIYPYNDGTNYNEKFKGKATLTSDKSSSTAYMELSSLTSEDSAVYYCARGDYGDSAWFPYWGQGTLVTVSA", "VL": "DIVLTQSPASLAVSLGQRATISCRASKSVSTSGYSYMHWYQQKPGQPPKLLIYLASNLKSGVPARFSGGGSGTDFTLNIHPVEEEDAATYYCQLSRELPWTFGGGTKLEIK"}, "B4": {"name": "6-O12-A (antibody, V domains shown)", "VH": "QVQLQQPGTELVKPGASVKLSCKASGYTFTSYWMHWVKQRPGQGLEWIGNINPSNGGTNYNEKFRSKATLTVDKSSSTAYMQLSSLTSEDSAVYYCARLGWFLPLGSWGQGTTLTVSS", "VL": "QIVLTQSPAIMSASLGEVITLTCSASSSVSYMHWYQQKSGTSPKLLIYSTSNLASGVPSRFSGSGSGTFYSLTISSVEAEDAADYYCHQWSGYMYTFGGGTKLEIK"}, "B5": {"name": "7-D7-A (antibody, V domains shown)", "VH": "QVQLKESGPGLVAPSQSLSITCTVSGFSLTSYAISWVRQPPGKGLEWLGVIWPGGGTNYNSALKSRLSISKDNSKSQVFLKMNSLQTDDTAKYYCARTGYYFDYWGQGTTLTVSS", "VL": "QLILTQSPAIMSASPGEKVTMTCSASLSVNYMYWFQQKPGTSPKRWIHDTSKLASGVPARFSGSGSGTSYSLTISSMEAEDAATYYCQQWSSNPPMYTFGGGTKLEIK"}, "B6": {"name": "8-A17-A (antibody, V domains shown)", "VH": "B5 VH with I51V, S70N, A91G, K92R, Y101H", "VL": "B5 VL with L2I, I3V, A25V, L27S, N30S, Y33H, F35Y, P39S, H48Y"}, "B7": {"name": "1-L10-A (antibody, V domains shown)", "VH": "EVKLEESGGGLVQPGGSMKLSCVASGFTFNNYWMNWVRQSPEKGLEWVAQMRLKSDNYATHYAESVKGRFTISRDDSKSSVYLQMNNLRAEDTGIYYCIEGYWTYWGQGTLVTVSA", "VL": "QIVLTQSPAIMSASLGERVTMTCTASSSVSSSYLHWYQQKPGSSPKLWIYSTSNLASGVPARFSGNGSGTSYSLTISSMEAEDAATYYCLQYHRSPPYTFGGGTKLEIK"}},
  "note": "Positions count from the first letter of the chain named.",
  "data": [
    {"molecular_target": "T1, SARS-CoV-2 prefusion stabilized trimer protein (WIV02 isolate spike protein) (UniProt P0DTC2 14-1213)", "assay": "ELISA", "units": {"EC50": "nM"}, "values": [
      {"binder": "B1", "EC50": 10.3}
    ]},
    {"molecular_target": "SARS-CoV-1 spike protein (SARS-CoV-1, UniProt P59594 14-1195)", "assay": "ELISA", "units": {"EC50": "nM"}, "values": [
      {"binder": "B2", "EC50": 0.46},
      {"binder": "B1", "EC50": 0.55},
      {"binder": "B3", "EC50": 1.44},
      {"binder": "B4", "EC50": 0.24},
      {"binder": "B5", "EC50": 3.05},
      {"binder": "B6", "EC50": 0.36},
      {"binder": "B7", "EC50": 5.27}
    ]},
    {"molecular_target": "T2, MERS spike protein (MERS-CoV, UniProt K9N5Q8 18-1296)", "T2 chain": "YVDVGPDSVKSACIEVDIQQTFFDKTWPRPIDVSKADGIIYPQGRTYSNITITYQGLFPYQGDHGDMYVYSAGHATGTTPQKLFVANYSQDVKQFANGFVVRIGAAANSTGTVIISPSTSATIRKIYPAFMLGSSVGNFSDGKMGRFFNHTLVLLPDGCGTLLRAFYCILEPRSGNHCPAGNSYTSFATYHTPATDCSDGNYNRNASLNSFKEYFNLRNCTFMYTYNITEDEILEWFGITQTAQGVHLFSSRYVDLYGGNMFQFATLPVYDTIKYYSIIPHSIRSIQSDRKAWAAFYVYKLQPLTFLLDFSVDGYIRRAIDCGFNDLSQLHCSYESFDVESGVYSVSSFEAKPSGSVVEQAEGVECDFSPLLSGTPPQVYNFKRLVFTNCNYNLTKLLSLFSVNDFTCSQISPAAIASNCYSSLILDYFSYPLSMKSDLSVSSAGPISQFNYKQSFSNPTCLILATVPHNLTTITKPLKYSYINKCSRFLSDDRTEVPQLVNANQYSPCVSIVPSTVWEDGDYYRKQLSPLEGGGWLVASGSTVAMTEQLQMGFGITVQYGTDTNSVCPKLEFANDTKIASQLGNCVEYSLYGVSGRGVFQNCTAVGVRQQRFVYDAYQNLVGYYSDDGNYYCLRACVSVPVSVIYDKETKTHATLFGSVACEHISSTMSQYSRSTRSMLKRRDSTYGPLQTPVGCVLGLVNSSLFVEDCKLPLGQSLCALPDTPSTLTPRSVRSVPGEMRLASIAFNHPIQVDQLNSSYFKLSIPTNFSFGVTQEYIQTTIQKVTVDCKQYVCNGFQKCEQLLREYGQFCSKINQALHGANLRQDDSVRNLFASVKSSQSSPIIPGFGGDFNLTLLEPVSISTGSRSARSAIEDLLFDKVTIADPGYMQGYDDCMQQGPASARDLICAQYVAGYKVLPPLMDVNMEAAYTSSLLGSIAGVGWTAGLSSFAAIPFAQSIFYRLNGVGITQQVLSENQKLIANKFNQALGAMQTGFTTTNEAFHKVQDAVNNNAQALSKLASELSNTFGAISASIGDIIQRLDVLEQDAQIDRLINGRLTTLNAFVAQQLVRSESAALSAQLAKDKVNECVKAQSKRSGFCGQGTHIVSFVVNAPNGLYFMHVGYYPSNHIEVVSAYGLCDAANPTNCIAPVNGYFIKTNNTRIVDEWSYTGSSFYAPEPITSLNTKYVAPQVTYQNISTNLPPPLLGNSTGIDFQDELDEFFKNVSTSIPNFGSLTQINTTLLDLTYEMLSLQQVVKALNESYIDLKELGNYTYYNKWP", "assay": "ELISA", "units": {"EC50": "nM"}, "values": [
      {"binder": "B2", "EC50": 1.67},
      {"binder": "B1", "EC50": 0.63},
      {"binder": "B3", "EC50": 8.71},
      {"binder": "B4", "EC50": 0.25},
      {"binder": "B5", "EC50": 0.9},
      {"binder": "B6", "EC50": 0.49},
      {"binder": "B7", "EC50": 3.47}
    ]},
    {"molecular_target": "SARS-CoV-2 S2 domain (UniProt P0DTC2 686-1213)", "assay": "ELISA", "units": {"EC50": "nM"}, "values": [
      {"binder": "B1", "EC50": 6.62}
    ]},
    {"molecular_target": "T3, HCoV229E spike protein (HCoV-229E, UniProt P15423 17-1103)", "T3 chain": "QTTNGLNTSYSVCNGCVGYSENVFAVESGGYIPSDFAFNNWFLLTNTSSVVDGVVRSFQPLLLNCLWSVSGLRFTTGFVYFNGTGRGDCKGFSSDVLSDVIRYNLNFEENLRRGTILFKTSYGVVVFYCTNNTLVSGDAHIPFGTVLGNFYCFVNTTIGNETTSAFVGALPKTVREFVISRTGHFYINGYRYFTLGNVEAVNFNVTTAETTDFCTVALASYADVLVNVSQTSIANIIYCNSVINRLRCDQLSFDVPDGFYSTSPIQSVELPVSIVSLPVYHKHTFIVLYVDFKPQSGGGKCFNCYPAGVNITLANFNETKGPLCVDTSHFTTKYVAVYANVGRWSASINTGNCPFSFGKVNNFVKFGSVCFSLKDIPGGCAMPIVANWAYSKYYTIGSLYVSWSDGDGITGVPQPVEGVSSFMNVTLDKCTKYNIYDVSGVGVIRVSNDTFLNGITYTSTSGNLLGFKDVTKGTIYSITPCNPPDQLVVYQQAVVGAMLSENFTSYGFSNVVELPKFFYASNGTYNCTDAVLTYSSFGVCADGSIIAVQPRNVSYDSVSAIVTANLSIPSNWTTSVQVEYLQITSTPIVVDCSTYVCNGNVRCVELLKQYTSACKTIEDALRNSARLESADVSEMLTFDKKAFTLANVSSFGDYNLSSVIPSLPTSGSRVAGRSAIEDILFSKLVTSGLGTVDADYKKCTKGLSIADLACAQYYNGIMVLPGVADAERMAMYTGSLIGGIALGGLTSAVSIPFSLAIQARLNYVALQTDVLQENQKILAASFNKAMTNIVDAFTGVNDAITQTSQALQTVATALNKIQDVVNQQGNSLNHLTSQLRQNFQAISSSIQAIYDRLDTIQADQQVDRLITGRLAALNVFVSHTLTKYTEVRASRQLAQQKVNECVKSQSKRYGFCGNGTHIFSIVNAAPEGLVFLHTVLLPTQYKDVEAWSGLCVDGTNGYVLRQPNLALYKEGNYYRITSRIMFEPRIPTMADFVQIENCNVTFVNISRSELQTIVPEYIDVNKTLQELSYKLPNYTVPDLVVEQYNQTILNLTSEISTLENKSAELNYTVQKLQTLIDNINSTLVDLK", "assay": "ELISA", "units": {"EC50": "nM"}, "values": [
      {"binder": "B2", "EC50": 0.03},
      {"binder": "B3", "EC50": 0.1},
      {"binder": "B4", "EC50": 0.15},
      {"binder": "B5", "EC50": 0.13},
      {"binder": "B6", "EC50": 0.01},
      {"binder": "B7", "EC50": 0.12}
    ]},
    {"molecular_target": "T1, SARS-CoV-2 prefusion stabilized trimer …", "assay": "ELISA", "remark": "another data set of the same source", "units": {"EC50": "nM"}, "values": [
      {"binder": "B2", "EC50": 0.59},
      {"binder": "B1", "EC50": 10.7},
      {"binder": "B3", "EC50": 1.83},
      {"binder": "B4", "EC50": 0.39},
      {"binder": "B5", "EC50": 0.72},
      {"binder": "B6", "EC50": 0.27},
      {"binder": "B7", "EC50": 111}
    ]}
  ]
}
